Values quoted from earlier work as cited in PMC12860966.

Target: MMP-9 (Homo sapiens) (UniProt P14780)
Chain of UniProt P14780 (P14780 94-707): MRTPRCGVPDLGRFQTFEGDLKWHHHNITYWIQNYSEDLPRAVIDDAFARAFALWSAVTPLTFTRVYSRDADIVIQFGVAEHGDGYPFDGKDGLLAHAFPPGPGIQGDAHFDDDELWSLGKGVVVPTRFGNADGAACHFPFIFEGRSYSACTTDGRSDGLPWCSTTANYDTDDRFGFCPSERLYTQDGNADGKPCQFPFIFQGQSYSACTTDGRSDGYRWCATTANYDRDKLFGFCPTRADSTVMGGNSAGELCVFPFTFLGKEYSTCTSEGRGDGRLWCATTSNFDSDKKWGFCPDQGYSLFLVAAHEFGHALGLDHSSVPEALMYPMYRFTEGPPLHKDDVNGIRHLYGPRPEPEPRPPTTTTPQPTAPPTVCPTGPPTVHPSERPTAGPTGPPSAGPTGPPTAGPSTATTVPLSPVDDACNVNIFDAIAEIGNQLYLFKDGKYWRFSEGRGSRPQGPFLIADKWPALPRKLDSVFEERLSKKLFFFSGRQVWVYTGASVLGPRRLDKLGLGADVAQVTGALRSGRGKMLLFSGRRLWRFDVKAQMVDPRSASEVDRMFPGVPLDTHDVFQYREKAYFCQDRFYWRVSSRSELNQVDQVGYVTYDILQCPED

TIMP-1 (from UniProt P01033)
Ki: 3.36 nM
